Drawing on article PMC7581431, this text covers molecules per core (molecules per core) for one molecule.

A value given as a limit tells only on which side of the number the result lay.

The experiment has as its target Lip-NKD-HisC (human (identical sequence in mouse and human)) (UniProt Q969G9). Kind of experiment: aggregation and co-aggregation assay read by PAGE; purified proteins in 15 mM acetate, 150 mM NaCl, pH 5.0 mixed in different ratios; after 10 min 1 M Tris-HCl pH 8.0 added to 200 mM; after 20 min boiled 10 min in LDS sample buffer; PAGE under denaturing and reducing conditions.

Lip-NKD-HisC (human (identical sequence in mouse and human)), sequence (Q969G9 whole entry): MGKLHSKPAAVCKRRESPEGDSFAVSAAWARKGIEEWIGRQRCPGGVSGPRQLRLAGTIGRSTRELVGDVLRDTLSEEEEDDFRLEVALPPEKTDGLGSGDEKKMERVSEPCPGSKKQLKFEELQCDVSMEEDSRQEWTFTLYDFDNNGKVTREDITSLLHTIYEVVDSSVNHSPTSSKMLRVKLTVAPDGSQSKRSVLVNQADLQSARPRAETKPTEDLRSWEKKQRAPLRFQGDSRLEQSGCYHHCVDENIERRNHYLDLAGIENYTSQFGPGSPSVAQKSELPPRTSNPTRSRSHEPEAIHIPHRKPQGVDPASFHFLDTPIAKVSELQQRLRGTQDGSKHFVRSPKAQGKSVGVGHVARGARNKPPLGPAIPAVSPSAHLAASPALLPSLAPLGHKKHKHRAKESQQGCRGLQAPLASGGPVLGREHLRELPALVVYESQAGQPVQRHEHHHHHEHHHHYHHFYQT

B1: MBP-Axin2-HisC (domain or fragment)
chain: KHVHHHYIHHHA
Take B1: the molecules per core (molecules per core) is less than 4.
